Patent US20220332804A1 (CSL INNOVATION, published 2022)
Numbering of substitutions follows the chain as printed.

What was measured:
Assay in all cases: SPR, KD relative to WT C2;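 note: biacore SPR at 37 °C, anti-C2 mAbs captured via immobilised goat anti-human IgG, C2 alanine or serine surface mutants as analytes, 1:1 model fitted, double-referenced sensograms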
human C2 I272A = molecular target: T1, human C2 I272A (human, UniProt P06681 21-752)
T1 sequence: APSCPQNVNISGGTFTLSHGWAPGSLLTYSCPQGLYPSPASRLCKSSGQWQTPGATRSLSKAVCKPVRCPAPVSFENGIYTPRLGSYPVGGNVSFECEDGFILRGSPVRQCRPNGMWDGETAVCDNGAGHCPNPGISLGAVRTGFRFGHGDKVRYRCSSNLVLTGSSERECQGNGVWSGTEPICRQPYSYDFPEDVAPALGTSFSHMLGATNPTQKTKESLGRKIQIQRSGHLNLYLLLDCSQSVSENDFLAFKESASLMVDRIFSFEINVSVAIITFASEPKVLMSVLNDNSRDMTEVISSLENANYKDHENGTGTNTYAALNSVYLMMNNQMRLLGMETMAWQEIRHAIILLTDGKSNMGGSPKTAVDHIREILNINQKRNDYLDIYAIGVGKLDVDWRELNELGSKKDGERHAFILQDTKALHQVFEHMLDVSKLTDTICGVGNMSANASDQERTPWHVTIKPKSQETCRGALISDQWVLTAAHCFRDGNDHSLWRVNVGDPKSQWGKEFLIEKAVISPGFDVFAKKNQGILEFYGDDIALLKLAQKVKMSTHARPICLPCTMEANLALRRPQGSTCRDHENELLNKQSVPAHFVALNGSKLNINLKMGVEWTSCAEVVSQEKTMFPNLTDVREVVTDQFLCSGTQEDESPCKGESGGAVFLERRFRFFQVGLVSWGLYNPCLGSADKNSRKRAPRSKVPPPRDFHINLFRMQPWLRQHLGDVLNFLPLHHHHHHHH

human C2 V448A = molecular target: T2, human C2 V448A (human, UniProt P06681 21-752)
T2 sequence: T1 sequence with A252I, V428A

human C2 K487A = molecular target: T3, human C2 K487A (human, UniProt P06681 21-752)
T3 sequence: T1 sequence with A252I, K467A

human C2 K550A = molecular target: T4, human C2 K550A (human, UniProt P06681 21-752)
T4 sequence: T1 sequence with A252I, K530A

B1: RF16-226 (antibody, human IgG4 S228P, lambda)
heavy: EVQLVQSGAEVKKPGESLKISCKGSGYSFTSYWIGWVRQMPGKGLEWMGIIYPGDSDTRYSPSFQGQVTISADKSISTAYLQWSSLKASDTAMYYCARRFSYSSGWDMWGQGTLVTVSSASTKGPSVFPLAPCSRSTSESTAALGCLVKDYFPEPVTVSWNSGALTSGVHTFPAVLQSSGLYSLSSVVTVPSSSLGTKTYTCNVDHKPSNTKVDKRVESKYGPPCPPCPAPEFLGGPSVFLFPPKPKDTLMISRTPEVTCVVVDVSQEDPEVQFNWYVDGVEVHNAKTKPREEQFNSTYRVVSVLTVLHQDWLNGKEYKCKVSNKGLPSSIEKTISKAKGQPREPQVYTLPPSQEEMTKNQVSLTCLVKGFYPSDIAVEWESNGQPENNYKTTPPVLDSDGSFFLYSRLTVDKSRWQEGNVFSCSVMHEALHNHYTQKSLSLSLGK
light: SYELTQPPSVSVSPGQTARITCSGDALTSKYVAWYQQKSGLAPLLVIYEDTRRPSGIPAKFSGSSSGSVATLTISGAHGDDEADYYCYSTDASGHQRVFGGGTKLTVLSQPKAAPSVTLFPPSSEELQANKATLVCLISDFYPGAVTVAWKADGSPVKAGVETTKPSKQSNNKYAASSYLSLTPEQWKSHRSYSCQVTHEGSTVEKTVAPTECS
notes: pH-dependent anti-C2 antibody from a phage display library; also called WT
**Q.** What does the source list for B1?
**A.** Fold diff (human C2 I272A): 1 fold; Fold diff (human C2 V448A): 0 fold; Fold diff (human C2 K487A): 9 fold; Fold diff (human C2 K550A): 1 fold
